B1: Azoarcus group I ribozyme (parent)
chain: GUGCCUUGCGCCGGGAAACCACGCAAGGGAUGGUGUCAAAUUCGGCGAAACCUAAGCGCCCGCCCGGGCGUAUGGCAACGCCGAGCCAAGCUUCGGCGCCUGCGCCGAUGAAGGUGUAGAGACUAGACGGCACCCACCUAAGGCAAACGCUAUGGUGAAGGCAUAGUCCAGGGAGUGGCGAAAGUCACACAAACCGG

Variants of: B1
Experiment: reverse-splicing fitness (ratio to wild type); higher = more active; in vitro selection; Mg2+ level not given
In short: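 An in vitro group I ribozyme library with randomized positions was T7-transcribed and gel-purified. In triplicate, 10 pmol RNA in EPPS pH 7.5 was reacted with 50 pmoles of a 30-nt RNA substrate for 1 h at 37 °C across several added MgCl2 levels (1–48 mM), then stopped with EDTA. Products were reverse transcribed from a substrate-complementary primer, PCR-amplified and sequenced (HiSeq 4000). Fitness is a variant's read proportion after selection over that before, normalised to wild type.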

Variant	reverse-splicing fitness
A111C A145C C150G C169A U176C	0.00833
A111C A145C C150G C169A U176A	0.00774
A111C A145C C150G C169A U176G	0.00574
A111C A120U A145G C150U C169U U176G	0.00321
A111C A120U A145G C150U C169U U176A	0.0118
A111C A120U A145G C150U C169U U176C	0.0178
A111C A120U A145G C169G	0.0583
A111C A120U A145G C169A	0.00474
A111C A120U A145G C169U	0.0781
A111C A145G	0.83
A111C A145C	0.768
A111C A120U A145U C150A C169G U176C	0.00388
A111C A120U A145U C150A C169G U176A	0.00295
A111C A120U A145U C150A C169G U176G	0.00199
A111C A120U A145U C150U C169U U176C	0.0142
A111C A120U A145U C150U C169U U176A	0.00859
A111C A120U A145U C150U C169U U176G	0.00224
A111C A145C C150U U176G	0.11
A111C A145C C150U U176C	0.349
A111C A145C C150U U176A	0.219
A111C A120U A145C C150U C169G U176A	0.00383

Variant	reverse-splicing fitness
A111C A120U A145C C150U C169G U176G	0.00229
A111C A120U A145C C150U C169G U176C	0.00324
A111C A120U A145C C150G C169U	0.0105
A111C A120U A145C C150G C169G	0.00714
A111C A120U A145C C150G C169A	0.00389
A111C A145C C150G C169G U176G	0.0057
A111C A145C C150G C169G U176C	0.00915
A111C A145C C150G C169G U176A	0.00768
A111C A145G C150A U176A	0.146
A111C A120U C150U C169A U176G	0.00204
A111C A120U C150U C169A U176A	0.00394
A111C A120U C150U C169A U176C	0.00309
A111C A120U A145C C169U U176G	0.00215
A111C A120U A145C C169U U176A	0.0108
A111C A120U A145C C169U U176C	0.0145
A111C A120U C150U C169G	0.0296
A111C A120U C150U C169U	0.0424
A111C A120U C150U C169A	0.00639
A111C A120U A145G C150G U176G	0.00515
A111C A120U A145G C150G U176C	0.0349
A111C A120U A145G C150G U176A	0.0151

Variant	reverse-splicing fitness
A111C A145C C169U U176G	0.00694
A111C A145C C169U U176C	0.0254
A111C A145C C169U U176A	0.0278
A111C A145C C150U C169U U176A	0.0174
A111C A145C C150U C169U U176C	0.0139
A111C A145C C150U C169U U176G	0.00818
A111C A120U C150G C169U U176C	0.00564
A111C A120U C150G C169U U176A	0.00446
A111C A120U C150G C169U U176G	0.00276
A111C A120U A145C C169A U176C	0.00231
A111C A120U A145C C169A U176A	0.00217
A111C A120U A145C C169A U176G	0.00212
A111C A120U A145U C150U U176C	0.215
A111C A120U A145U C150U U176G	0.0348
A111C A120U A145U C150U U176A	0.182
A111C A145C C150A C169U	0.0128
A111C A145C C150A C169A	0.00829
A111C A145C C150A C169G	0.00874
A111C A120U A145C C150A C169G U176C	0.00302
A111C A120U A145C C150A C169G U176A	0.00305
A111C A120U A145C C150A C169G U176G	0.0024

Variant	reverse-splicing fitness
A111C A120U A145C C150A	0.0314
A111C A120U A145C C150U	0.18
A111C A120U A145C C150G	0.0809
A111C A120U C150U C169G U176A	0.00676
A111C A120U C150U C169G U176C	0.00812
A111C A120U C150U C169G U176G	0.00251
A111C A145G C150A C169U	0.0232
A111C A145G C150A C169A	0.0128
A111C A145G C150A C169G	0.0154
A111C A120U A145C C150U C169U	0.0171
A111C A120U A145C C150U C169G	0.0128
A111C A120U A145C C150U C169A	0.00231
A111C A120U A145G C150A C169U U176C	0.00638
A111C A120U A145G C150A C169U U176A	0.00876
A111C A120U A145G C150A C169U U176G	0.00263
A111C A145C C150G C169U U176A	0.00817
A111C A145C C150G C169U U176G	0.00607
A111C A145C C150G C169U U176C	0.0119
A111C A120U A145U C150G C169U U176A	0.00284
A111C A120U A145U C150G C169U U176C	0.00398
